Target: MAb E2-9
Test: inhibition ELISA: soluble Fba peptide against plate-coated Fba-MAP for MAb E2-9

YGKDVKDLFDYAQE [Fba peptide (…), synthetic 14 mer from Candida albicans fructose-bisphosphate aldolase] was tested, and the IC50 was 10 µg/mL.
